Data taken from patent publication US6824971 (SLOAN KETTERING INSTITUTE FOR CANCER RESEARCH, dated 2004).
Substitutions are numbered along the chain they refer to. Numbers in names are those of the source.

T1: Recombinant Smad4/DPC4 C-terminal domain, residues 319-552 (human)
T1 chain: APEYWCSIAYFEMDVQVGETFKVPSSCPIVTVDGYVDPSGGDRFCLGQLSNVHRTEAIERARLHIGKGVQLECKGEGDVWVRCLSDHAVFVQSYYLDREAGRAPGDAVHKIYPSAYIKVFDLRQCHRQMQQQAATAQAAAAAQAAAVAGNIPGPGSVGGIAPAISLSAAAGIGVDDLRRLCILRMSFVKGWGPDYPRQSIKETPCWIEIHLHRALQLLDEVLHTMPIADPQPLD

B1: Recombinant Smad4/DPC4 C-terminal domain, residues 319-552, O70437 319-552 (protein)
chain: T1 chain
B2: Smad4/DPC4 C-terminal domain, amino acids 294-552 (other)
chain: MPPHPGHYWPVHNELAFQPPISNHPAPEYWCSIAYFEMDVQVGETFKVPSSCPIVTVDGYVDPSGGDRFCLGQLSNVHRTEAIERARLHIGKGVQLECKGEGDVWVRCLSDHAVFVQSYYLDREAGRAPGDAVHKIYPSAYIKVFDLRQCHRQMQQQAATAQAAAAAQAAAVAGNIPGPGSVGGIAPAISLSAAAGIGVDDLRRLCILRMSFVKGWGPDYPRQSIKETPCWIEIHLHRALQLLDEVLHTMPIADPQPLD
notes: Construct for mammalian cells (pCMV5), Flag- or HA-tagged; also called Smad4(C); Smad4 C domain
B3: Smad4/DPC4 C-terminal domain Gly508Ser (other)
chain: B2 chain with G215S
notes: HA-tagged; also called G508S; developmental L3 loop mutation
B4: Smad4/DPC4 C-terminal domain Arg361Cys (other)
chain: B2 chain with R68C
notes: HA-tagged; tumor-derived trimer interface mutation; also called R361C
B5: Smad4/DPC4 C-terminal domain Val370Asp (other)
chain: B2 chain with V77D
notes: HA-tagged; tumor-derived trimer interface mutation; also called V370D
B6: Smad4/DPC4 full-length Gly508Ser (other)
chain: MDNMSITNTPTSNDACLSIVHSLMCHRQGGESETFAKRAIESLVKKLKEKKDELDSLITAITTNGAHPSKCVTIQRTLDGRLQVAGRKGFPHVIYARLWRWPDLHKNELKHVKYCQYAFDLKCDSVCVNPYHYERVVSPGIDLSGLTLQSNAPSSMMVKDEYVHDFEGQPSLSTEGHSIQTIQHPPSNRASTETYSTPALLAPSESNATSTANFPNIPVASTSQPASILGGSHSEGLLQIASGPQPGQQQNGFTGQPATYHHNSTTTWTGSRTAPYTPNLPHHQNGHLQHHPPMPPHPGHYWPVHNELAFQPPISNHPAPEYWCSIAYFEMDVQVGETFKVPSSCPIVTVDGYVDPSGGDRFCLGQLSNVHRTEAIERARLHIGKGVQLECKGEGDVWVRCLSDHAVFVQSYYLDREAGRAPGDAVHKIYPSAYIKVFDLRQCHRQMQQQAATAQAAAAAQAAAVAGNIPGPGSVGGIAPAISLSAAAGIGVDDLRRLCILRMSFVKSWGPDYPRQSIKETPCWIEIHLHRALQLLDEVLHTMPIADPQPLD
notes: Full-length point mutant; also called G508S

Columns and labels:
[1] = biological target: T1, Recombinant Smad4/DPC4 C-terminal …; assay: crystal structure, trimer (three interfaces in total); conditions: remark: other sources report otherwise
[2] = biological target: the molecule itself; assay: co-IP of differentially tagged constructs, COS cells
Source text: (§1) The full-length Smad4/DPC4 and Smad2, Smad4/DPC4-C-terminal domain encoding amino acids 294–552 (SEQ ID NO.:1) and the Smad2-C-terminal domain encoding amino acids 248–467 (SEQ ID NO.:3) were subcloned into the mammalian expression vector pCMV5. All Smad4/DPC4 point mutations were generated by a polymerase chain reaction (PCR)-based method and were confirmed by DNA sequencing. Mammalian COS-1 cells were transiently transfected with the indicated FLAG- and HA-tagged constructs by the DEAE-dextran method. Two days after transfection, cells were incubated with 200 pM TGF-β1 for one hour. Cells were lysed and subjected to immunoprecipitation followed by immunoblot as described. The wash buffers contained 150 mM NaCl for all immunoprecipitation experiments except for the homo-oligomerization assays of the full-length wild-type Smad4/DPC4 and point mutants, where 250 mM NaCl was employed to better differentiate the WT and mutant activities.
(§2) To assay for homo-oligomerization, mammalian COS-1 cells were transiently transfected with Flag-tagged wild-type Smad4/DPC4-C-terminal domain (WT) and HA-tagged WT or mutant constructs. For hetero-oligomerization, cells were transfected with Flag-tagged Smad2 C-terminal domain and HA-tagged Smad4/DPC4 C-terminal domain WT or mutant constructs together with constitutively active TGF-β type I receptor construct. […]

[3] = biological target: B2; assay: co-IP, Flag-WT C-terminal domain with HA-mutant, COS-1 cells
Source text: as §1, §2

[4] = biological target: B2; assay: co-IP, Flag-WT with HA-mutant, COS-1 cells
Source text: as §1, §2

[5] = biological target: the molecule itself; assay: gel filtration of recombinant full-length protein
Protocol: The full-length Smad4/DPC4 proteins, both wild-type and point mutants, were overexpressed at room temperature in E.coli using a pET vector (Novagen). Smad4/DPC4 protein in the soluble fraction of the E. coli lysate was partially purified by ion exchange chromatography (Q-Sepharose) and was applied to a gel filtration column (Superdex200) in 50 mM Tris, 200 mM NaCl, 5 mM DTT, pH 8.0. Aliquots from the fractions corresponding to molecular weight standards between 440 kDa and 25 kDa were taken for immunoblots with a rabbit polyclonal antibody raised against the Smad4/DPC4-C-terminal domain. The results were visualized with the ECL Western analysis and detection system (Amersham). In addition, the WT full-length Smad4/DPC4 was also cloned as a GST-fusion protein and purified to near homogeneity over a glutathione column. The fusion protein was then cleaved with Thrombin and the. Smad4/DPC4 protein was futher purified by anion-exchange chromatography (Source 15Q column).
The fractions were visualized with Coomassie staining. […] Gel filtration fractions of partially purified wild-type and mutant Smad4/DPC4 proteins were analyzed by immunoblots with anti-Smad4/DPC4 antibody.

Q: Which buried surface area [1] does the source give for B1 here?
A: The buried surface area was 4800 Å^2.

Q: Does B2 bind [2]?
A: Result: binds

Q: Does B3 bind [3]?
A: Result: binds

Q: Does B4 bind [4]?
A: Result: no binding

Q: Does B5 bind [4]?
A: Result: no binding

Q: Does B6 bind [5]?
A: Result: binds
